According to patent US20260167959A1, “APTAZYME-BASED REGULATABLE GENE EXPRESSION SYSTEMS” (REJUVENATE BIO INC, priority 2022, published 2026):

test system: Renilla luciferase RNA; experiment: Barcoded aptazyme variant library screen: un-cleaved Renilla luciferase RNA by barcode read counts, HEK293-T cells; format: cell-based; conditions: un-cleaved Renilla luciferase RNA, HEK293-T cells cultured with 1 mM theophylline (ON) over without theophylline (OFF); barcode read counts, triplicate
Procedure, shortened: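 Aptazyme variants (seven theophylline aptamers inserted after each T3H48 ribozyme nucleotide, 9-nt barcoded) cloned into the 3′ UTR of Renilla luciferase in psiCHECK-2; cells cultured ± theophylline, in triplicate. RNA and DNA barcodes amplified and sequenced; normalized read counts gave un-cleaved RNA fraction and ON/OFF fold-change.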

Molecule	Fold change in RNA expression between the ON state and the OFF state [fold]
RA161 (nucleic acid, expressed or natural sequence) DNA: GCGCGTCCTGGATTCGCGGAAACGCGTACATCCAGCTGACGAGTCCCAAATAGGACCCGGAATACCAGCATCGTCTTGATGCCCTTGGAAGTCCGGGAAACGCGC	1.3
RA162 (nucleic acid, expressed or natural sequence) DNA: GCGCGTCCTGGATTCGCGGAAACGCGTACATCCAGCTGACGAGTCCCAAATAGGGGAATACCAGCATCGTCTTGATGCCCTTGGAAGTCCACGAAACGCGC	1.3
RA163 (nucleic acid, expressed or natural sequence) DNA: GCGCGTCCTGGATTCGCGGAAACGCGTACATCCAGCCGGAATACCAGCATCGTCTTGATGCCCTTGGAAGTCCGGCTGACGAGTCCCAAATAGGACGAAACGCGC	1.3
RA164 (nucleic acid, expressed or natural sequence) DNA: GCGCGTCCTGGATTCGCGGAAACGCGTACATCCAGCTGACGAGTCCCAAATAGGACGCGAGAATACCAGCATCGTCTTGATGCCCTTGGAAGTCTCGAAACGCGC	1.3
RA165 (nucleic acid, expressed or natural sequence) DNA: GCGCGTCCTGGATTCGCGGAAACGCGTAGAGAATACCAGCATCGTCTTGATGCCCTTGGAAGTCTCCATCCAGCTGACGAGTCCCAAATAGGACGAAACGCGC	1.3
RA166 (nucleic acid, expressed or natural sequence) DNA: GCGCGTCCTGGATTCGCGGAAACGCGTACATCCAGCTGACGAGTCCCACGAGAATACCAGCATCGTCTTGATGCCCTTGGAAGTCTCGAATAGGACGAAACGCGC	1.3
RA167 (nucleic acid, expressed or natural sequence) DNA: GCGCGTCCTGGATTCGCGGAAACGCGTACATCCAGGGAATACCAGCATCGTCTTGATGCCCTTGGAAGTCCCTGACGAGTCCCAAATAGGACGAAACGCGC	1.3
RA016 (nucleic acid, expressed or natural sequence) DNA: GCGCGTCCTGGATGAGAATACCAGCATCGTCTTGATGCCCTTGGAAGTCTCTCGCGGAAACGCGTACATCCAGCTGACGAGTCCCAAATAGGACGAAACGCGC	2.8
RA168 (nucleic acid, expressed or natural sequence) DNA: GCGCGTCCTGGATCGAGAATACCAGCATCGTCTTGATGCCCTTGGAAGTCTCGTCGCGGAAACGCGTACATCCAGCTGACGAGTCCCAAATAGGACGAAACGCGC	1.3
RA169 (nucleic acid, expressed or natural sequence) DNA: GCGCGTCCTGGCCGGAATACCAGCATCGTCTTGATGCCCTTGGAAGTCCGGATTCGCGGAAACGCGTACATCCAGCTGACGAGTCCCAAATAGGACGAAACGCGC	1.3
RA170 (nucleic acid, expressed or natural sequence) DNA: GCGCGTCCTGGATTCGCGGAAACGCGTACATCCAGCTGACGAGTCCCAAATAGGACGAAACGCAGAATACCAGCATCGTCTTGATGCCCTTGGAAGTCTGC	1.3
RA171 (nucleic acid, expressed or natural sequence) DNA: GCGCGTCCTGGATTCGCGGAAACGCGTACACGAGAATACCAGCATCGTCTTGATGCCCTTGGAAGTCTCGTCCAGCTGACGAGTCCCAAATAGGACGAAACGCGC	1.3
RA172 (nucleic acid, expressed or natural sequence) DNA: AGAATACCAGCATCGTCTTGATGCCCTTGGAAGTCTGCGCGTCCTGGATTCGCGGAAACGCGTACATCCAGCTGACGAGTCCCAAATAGGACGAAACGCGC	1.3
RA173 (nucleic acid, expressed or natural sequence) DNA: GCGCGTCCTGGATTCGCGGAAACGCGTACATCCAGCTGACGAGTCCCAAATAGCGGAATACCAGCATCGTCTTGATGCCCTTGGAAGTCCGGACGAAACGCGC	1.3
RA174 (nucleic acid, expressed or natural sequence) DNA: GCGCGTCCTGGATTCGCGGAAACGCGTACATCCAGCCGGAATACCAGCATCGTCTTGATGCCCTTGGAAGTCCGTGACGAGTCCCAAATAGGACGAAACGCGC	1.3
RA175 (nucleic acid, expressed or natural sequence) DNA: GCGCGTCCTGGATTCGCGGAAACGCGTACATCCAGCTGACGAGTCCCAAATAGGACGAAACGCGCCGAGAATACCAGCATCGTCTTGATGCCCTTGGAAGTCTCG	1.3
RA001 (nucleic acid, expressed or natural sequence) DNA: GCGCGTCCTGGATTCGCGGAAACGCGTACATCCAGCTGACGAGTCCCAAATAGGACGAAACGCGCAGTGATACCAGCATCGTCTTGATGCCCTTGGCAGCACT	>6
RA176 (nucleic acid, expressed or natural sequence) DNA: GCGCGTCCTGGAATACCAGCATCGTCTTGATGCCCTTGGAAGTCCGGATTCGCGGAAACGCGTACATCCAGCTGACGAGTCCCAAATAGGACGAAACGCGC	1.3
RA177 (nucleic acid, expressed or natural sequence) DNA: GCGCGTCCTGGATTCGCGGAAACGCGTACATCCAGCTGACGAGTCCCAAATAGGACGAAACGCAGTGATACCAGCATCGTCTTGATGCCCTTGGCAGCACTGC	1.3
RA017 (nucleic acid, expressed or natural sequence) DNA: GCGCGTCCTGGCGGAATACCAGCATCGTCTTGATGCCCTTGGAAGTCCGATTCGCGGAAACGCGTACATCCAGCTGACGAGTCCCAAATAGGACGAAACGCGC	2.8
RA178 (nucleic acid, expressed or natural sequence) DNA: GCGCGTCCTGGATTCGCGGAAACGCGTACATCCGGAATACCAGCATCGTCTTGATGCCCTTGGAAGTCCAGCTGACGAGTCCCAAATAGGACGAAACGCGC	1.3
